According to publication PMC4330359, “DNA-mediated cooperativity facilitates the co-selection of cryptic enhancer sequences by SOX2 and PAX6 transcription factors”:

Tests used:
[1] = molecular target: Sox2-HMG long (109 aa);Pax6-PRD R44Q (mouse;mouse?, UniProt P48432;P63015 41-149;4-130, |R44Q); assay: EMSA; cooperativity not affected by R44Q; EMSA: 10 mM Tris-HCl pH 8.0, 0.1 mg/ml BSA, 50 uM ZnCl2, 100 mM KCl, 10% glycerol, 0.1% IGEPAL CA-630, 2 mM 2-mercaptoethanol, 1-2 h, gel at 4 C, 100-300 nM DNA; NMR: 50 mM K phosphate, 100 mM NaCl, pH 7.0, 298 K; conditions: protein: recombinant;recombinant; tags: ;; copies: 1;1; label: 5'-FAM or 5'-Cy5; blunt
[2] = molecular target: Sox2-HMG long (109 aa);Pax3-PRD (mouse;mouse?, UniProt P48432;P24610 41-149;34-161, |); assay: EMSA; cooperative; EMSA: 10 mM Tris-HCl pH 8.0, 0.1 mg/ml BSA, 50 uM ZnCl2, 100 mM KCl, 10% glycerol, 0.1% IGEPAL CA-630, 2 mM 2-mercaptoethanol, 1-2 h, gel at 4 C, 100-300 nM DNA; NMR: 50 mM K phosphate, 100 mM NaCl, pH 7.0, 298 K; conditions: protein: recombinant;recombinant; tags: ;; copies: 1;1; label: 5'-FAM or 5'-Cy5; blunt
[3] = molecular target: Sox2-HMG long (109 aa);Pax9-PRD (mouse;mouse?, UniProt P48432;P47242 41-149;4-130, |); assay: as above; conditions: protein: recombinant;recombinant; tags: ;; copies: 1;1; label: 5'-FAM or 5'-Cy5; blunt
[4] = molecular target: Sox2-HMG long (109 aa);Pax8-PRD (mouse;mouse?, UniProt P48432;Q00288 41-149;9-135, |); assay: as above; conditions: protein: recombinant;recombinant; tags: ;; copies: 1;1; label: 5'-FAM or 5'-Cy5; blunt
[5] = molecular target: Sox2-HMG long (109 aa);Pax2-PRD (mouse;mouse?, UniProt P48432;P32114 41-149;15-141, |); assay: as above; conditions: protein: recombinant;recombinant; tags: ;; copies: 1;1; label: 5'-FAM or 5'-Cy5; blunt
Sox2-HMG long (109 aa) [6] = molecular target: T1, Sox2-HMG long (109 aa) (mouse, UniProt P48432 41-149); assay: NMR; 1:1.2 Sox2:DC5; EMSA: 10 mM Tris-HCl pH 8.0, 0.1 mg/ml BSA, 50 uM ZnCl2, 100 mM KCl, 10% glycerol, 0.1% IGEPAL CA-630, 2 mM 2-mercaptoethanol, 1-2 h, gel at 4 C, 100-300 nM DNA; NMR: 50 mM K phosphate, 100 mM NaCl, pH 7.0, 298 K; conditions: protein: recombinant; blunt
Sox2-HMG long (109 aa) [7] = molecular target: T1, Sox2-HMG long (109 aa); assay: EMSA; binary Sox2-DNA complex prominent; EMSA: 10 mM Tris-HCl pH 8.0, 0.1 mg/ml BSA, 50 uM ZnCl2, 100 mM KCl, 10% glycerol, 0.1% IGEPAL CA-630, 2 mM 2-mercaptoethanol, 1-2 h, gel at 4 C, 100-300 nM DNA; NMR: 50 mM K phosphate, 100 mM NaCl, pH 7.0, 298 K; conditions: protein: recombinant; label: 5'-FAM or 5'-Cy5; blunt

T1 sequence (P48432 41-149): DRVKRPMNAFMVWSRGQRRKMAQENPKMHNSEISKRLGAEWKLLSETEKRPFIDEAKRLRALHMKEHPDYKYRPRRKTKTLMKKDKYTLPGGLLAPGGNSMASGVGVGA
Sox2-HMG long (109 aa);Pax9-PRD, sequence (P48432 41-149, chain 1 of 2): as the sequence (P48432 41-149) above
Sox2-HMG long (109 aa);Pax9-PRD, sequence (P47242 4-130, chain 2 of 2): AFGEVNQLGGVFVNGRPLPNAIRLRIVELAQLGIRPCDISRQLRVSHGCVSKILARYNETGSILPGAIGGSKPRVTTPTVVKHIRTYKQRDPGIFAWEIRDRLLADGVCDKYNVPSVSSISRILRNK
Sox2-HMG long (109 aa);Pax2-PRD, sequence (P48432 41-149, chain 1 of 2): as the sequence (P48432 41-149) above
Sox2-HMG long (109 aa);Pax2-PRD, sequence (P32114 15-141, chain 2 of 2): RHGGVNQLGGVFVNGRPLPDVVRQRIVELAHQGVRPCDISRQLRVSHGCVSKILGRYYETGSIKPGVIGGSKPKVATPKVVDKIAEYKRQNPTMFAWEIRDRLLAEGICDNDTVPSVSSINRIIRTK
Sox2-HMG long (109 aa);Pax6-PRD R44Q, sequence (P48432 41-149, chain 1 of 2): as the sequence (P48432 41-149) above
Sox2-HMG long (109 aa);Pax6-PRD R44Q, sequence (P63015 4-130 R44Q, chain 2 of 2): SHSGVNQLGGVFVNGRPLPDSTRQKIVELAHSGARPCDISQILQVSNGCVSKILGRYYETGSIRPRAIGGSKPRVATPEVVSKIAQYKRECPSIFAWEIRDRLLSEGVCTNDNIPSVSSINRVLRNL
Sox2-HMG long (109 aa);Pax3-PRD, sequence (P48432 41-149, chain 1 of 2): as the sequence (P48432 41-149) above
Sox2-HMG long (109 aa);Pax3-PRD, sequence (P24610 34-161, chain 2 of 2): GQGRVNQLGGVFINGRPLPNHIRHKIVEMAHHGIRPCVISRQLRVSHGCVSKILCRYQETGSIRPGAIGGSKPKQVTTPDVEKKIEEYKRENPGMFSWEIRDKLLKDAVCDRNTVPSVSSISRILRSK
Sox2-HMG long (109 aa);Pax8-PRD, sequence (P48432 41-149, chain 1 of 2): as the sequence (P48432 41-149) above
Sox2-HMG long (109 aa);Pax8-PRD, sequence (Q00288 9-135, chain 2 of 2): as the sequence (P32114 15-141, chain 2 of 2) above, with R1G, V5L, V11A, D20E, E28D, K64R, D82E, A85G, E86D, I108V counted along it

B1: DC5 (dsDNA)
DNA 1: AAATATTCATTGTTGTTGCTCACCTACCATGGATCC
DNA 2: GGATCCATGGTAGGTGAGCAACAACAATGAATATTT
What does the source list for B1?
binding result [1]: binds; binding result [2]: binds; binding result [3]: binds; binding result [4]: binds; binding result [5]: binds

B2: DC5 31-mer (NMR) (dsDNA)
DNA 1: TTCATTGTTGTTGCTCACCTACCATGGATCC
DNA 2: GGATCCATGGTAGGTGAGCAACAACAATGAA
Does B2 bind (Sox2-HMG long (109 aa) [6])?
Result: binds

B3: DC5con (dsDNA)
DNA 1: AAATATTCATTGTTGATGTTCACGCATCATGGATCC
DNA 2: GGATCCATGATGCGTGAACATCAACAATGAATATTT
Does B3 bind (Sox2-HMG long (109 aa) [7])?
Result: binds
